Reference: PMC8092461 (Nature, 2020)

B1: C002 IgG (antibody, V domains shown)
VH: EVQLVESGGGVVQPGRSLRLSCAASGFTFSIYGMHWVRQAPGKGLEWVAVISYDGSNKYYADSVKGRFTISRDNSKNTLYLQMNSLRAEDTAVYYCAKEGRPSDIVVVVAFDYWGQGTLVTVSS
VL: not shown
B2: C104 IgG (antibody, V domains shown)
VH: QVQLQQWGAGLLKPSETLSLSCAVYGGSLSGYYWSWIRQPPGKGLEWIGEINHFGSTGYNPSLKSRVTISVDTSKSQFSVKLSSVTAADTAVYYCARKPLLYSNLSPGAFDIWGQGTMVTVSS
VL: EIVLTQSPGTVSLSPGERATLSCWASQSVSASYLAWYQQKPGQAPRLLIYGASSRATGIPDRFSGSGSGTDFTLTISRLEPEDFAVYYCQQYGTTPRTFGGGTKVEIK
B3: C105 IgG (antibody, V domains shown)
VH: QVQLVESGGGLIQPGGSLRLSCAASGFTVSSNYMSWVRQAPGKGLEWVSVIYSGGSTYYADSVKGRFTISRDNSKNTLYLQMNSLRAEDTAVYYCARGEGWELPYDYWGQGTLVTVSS
VL: QSALTQPPSASGSPGQSVTISCTGTSSDVGGYKYVSWYQQHPGKAPKLMIYEVSKRPSGVPDRFSGSKSGNTASLTVSGLQAEDEADYYCSSYEGSNNFVVFGGGTKLTVL
B4: C110 IgG (antibody, V domains shown)
VH: QVQLQQSGAEVKKPGESLKISCKGSGYSFTSYWIGWVRQMPGKGLEWMGIIYPGDSDTRYSPSFQGQVTISADKSISTAYMQWSSLKASDTAMYYCARSFRDDPRIAVAGPADAFDIWGQGTMVTVSS
VL: DIQMTQSPSTLSASVGDRVTITCRASQSISYWLAWYQQKPGKAPKLLIYQASSLESGVPSRFSGSESGTEFTLTISSLQPDDFATYYCQQYNSYPYTFGQGTKLEIK
B5: C119 IgG (antibody, V domains shown)
VH: QVQLVQSGAEVKKPGASVKVSCKASGYTFTSYYMHWVRQAPGQGLEWMGIINPSGGSTSYAQKLQGRVTMTRDTSTSTVYMELSSLRSEDTAVYYCARANHETTMDTYYYYYYMDVWGKGTTVTVSS
VL: QSALTQPASVSGSPGQSITISCTGTSSDVGGYKYVSWYQRHPGKAPKLMIYDVSNRPSGVSNRFSGSKSGNTASLTISGLQAEDEADYYCSSYTSSSTSVVFGGGTQLTVL
B6: C121 IgG (antibody, V domains shown)
VH: not shown
VL: QSALTQPASVSGSPGQSITISCTGTSSDVGSYNLVSWYQQHPGKAPKLMIYEGSKRPSGVSNRFSGSKSGNTASLTISGLQAEDEADYYCCSYAGSSTLVFGGGTKLTVL

Biological target: SARS-CoV-2 RBD (receptor-binding domain of S, residues 331-524) (SARS-CoV-2, UniProt P0DTC2)
Test: SPR

Q: Does B1 bind?
A: binds

Q: Does B2 bind?
A: binds

Q: Does B3 bind?
A: binds

Q: Does B4 bind?
A: binds

Q: Does B5 bind?
A: binds

Q: Does B6 bind?
A: binds
